Assay results published in PMC8602850.

Tests used:
[1] = target: gC1qR, wild type, mature recombinant (receptor for the globular heads of C1q) (UniProt Q07021); assay: SPR; gC1qR-WT or gC1qR-ΔΔ immobilised; two-fold dilution series of analyte injected; reference-corrected sensorgrams fit to kinetic models; apparent KD
[2] = target: gC1qR-ΔΔ, gC1qR deletion mutant that removed the flexible, negatively charged loops (UniProt Q07021); assay: not stated; not published; oligomeric state of gC1qR-ΔΔ in solution and in the crystal

Sequence of gC1qR, wild type, mature recombinant (receptor for the globular heads of C1q) (Q07021 74-282): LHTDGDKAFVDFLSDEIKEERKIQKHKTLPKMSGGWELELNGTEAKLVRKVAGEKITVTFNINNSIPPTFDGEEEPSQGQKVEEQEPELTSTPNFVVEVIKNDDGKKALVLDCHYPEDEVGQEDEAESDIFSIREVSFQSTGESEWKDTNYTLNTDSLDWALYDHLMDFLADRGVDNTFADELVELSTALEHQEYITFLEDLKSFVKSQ
Sequence of gC1qR-ΔΔ, gC1qR deletion mutant that removed the flexible, negatively charged loops (from UniProt Q07021 74-282) (receptor) (Q07021 74-282, stated change not applied): as the sequence (Q07021 74-282) above

| Substance | Kd [1] [nM] | stoichiometry N [2] |
| --- | --- | --- |
| SARS-CoV-2 Membrane-Envelope fusion protein, recombinant | 410 | – |
| gC1qR-ΔΔ, gC1qR deletion mutant that removed the flexible, negatively charged loops (from UniProt Q07021 74-282) (receptor) | – | 3 |
